Source: patent US20230293647A1 (AUTOLUS, published 2023)

How the values were obtained:
Assay in all cases: cell microarray
TTYH2 = target: T1, TTYH2 (human, UniProt Q9BSA4)
T1 sequence (looked up): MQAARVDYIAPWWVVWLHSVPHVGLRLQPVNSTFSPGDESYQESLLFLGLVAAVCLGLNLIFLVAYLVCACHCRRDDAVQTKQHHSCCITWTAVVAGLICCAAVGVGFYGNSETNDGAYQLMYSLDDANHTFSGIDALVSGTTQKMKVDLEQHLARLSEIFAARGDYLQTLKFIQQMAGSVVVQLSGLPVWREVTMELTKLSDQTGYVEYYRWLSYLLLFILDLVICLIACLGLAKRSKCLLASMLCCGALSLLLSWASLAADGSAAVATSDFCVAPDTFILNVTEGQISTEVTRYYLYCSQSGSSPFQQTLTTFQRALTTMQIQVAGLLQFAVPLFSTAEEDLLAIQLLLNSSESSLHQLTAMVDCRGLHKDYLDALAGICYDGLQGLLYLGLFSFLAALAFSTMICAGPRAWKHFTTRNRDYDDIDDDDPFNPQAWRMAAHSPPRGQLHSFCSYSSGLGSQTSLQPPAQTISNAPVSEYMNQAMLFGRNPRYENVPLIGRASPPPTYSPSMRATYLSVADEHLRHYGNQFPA

ADGRG7 = target: T2, ADGRG7 (human, UniProt Q96K78)
T2 sequence (looked up): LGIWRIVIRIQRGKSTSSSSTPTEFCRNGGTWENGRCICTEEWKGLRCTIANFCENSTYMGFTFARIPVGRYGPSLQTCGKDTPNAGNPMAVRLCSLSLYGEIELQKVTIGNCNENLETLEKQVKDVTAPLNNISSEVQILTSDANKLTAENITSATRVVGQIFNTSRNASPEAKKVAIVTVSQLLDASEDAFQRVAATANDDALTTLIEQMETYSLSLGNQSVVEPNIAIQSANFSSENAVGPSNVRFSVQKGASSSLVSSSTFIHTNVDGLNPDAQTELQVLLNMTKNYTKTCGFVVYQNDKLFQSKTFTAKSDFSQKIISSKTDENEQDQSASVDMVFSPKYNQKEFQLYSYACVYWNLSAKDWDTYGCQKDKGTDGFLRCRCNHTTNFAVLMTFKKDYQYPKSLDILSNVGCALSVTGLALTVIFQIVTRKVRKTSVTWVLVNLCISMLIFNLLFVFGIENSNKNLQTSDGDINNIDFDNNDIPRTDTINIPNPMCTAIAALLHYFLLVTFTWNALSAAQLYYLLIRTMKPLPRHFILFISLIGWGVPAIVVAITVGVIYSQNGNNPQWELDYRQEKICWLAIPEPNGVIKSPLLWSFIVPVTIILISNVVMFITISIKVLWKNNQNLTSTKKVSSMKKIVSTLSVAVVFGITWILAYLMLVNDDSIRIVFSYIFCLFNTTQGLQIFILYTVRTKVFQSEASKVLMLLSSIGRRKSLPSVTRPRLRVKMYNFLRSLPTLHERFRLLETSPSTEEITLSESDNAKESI

KCNAB2 = target: T3, KCNAB2 (human, UniProt Q13303)
T3 sequence (looked up): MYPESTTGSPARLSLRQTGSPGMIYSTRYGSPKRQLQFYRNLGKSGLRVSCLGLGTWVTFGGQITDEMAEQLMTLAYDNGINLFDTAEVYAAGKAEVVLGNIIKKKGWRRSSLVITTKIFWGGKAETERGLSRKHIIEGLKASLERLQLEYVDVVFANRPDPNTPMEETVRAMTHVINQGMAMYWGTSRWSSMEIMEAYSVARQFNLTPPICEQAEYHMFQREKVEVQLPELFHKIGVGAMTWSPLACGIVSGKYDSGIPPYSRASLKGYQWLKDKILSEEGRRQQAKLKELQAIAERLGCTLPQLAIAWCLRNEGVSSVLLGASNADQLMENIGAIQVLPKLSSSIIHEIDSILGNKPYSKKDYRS

TTYH3 V1 = target: T4, TTYH3 V1 (human, UniProt Q9C0H2)
T4 sequence (looked up): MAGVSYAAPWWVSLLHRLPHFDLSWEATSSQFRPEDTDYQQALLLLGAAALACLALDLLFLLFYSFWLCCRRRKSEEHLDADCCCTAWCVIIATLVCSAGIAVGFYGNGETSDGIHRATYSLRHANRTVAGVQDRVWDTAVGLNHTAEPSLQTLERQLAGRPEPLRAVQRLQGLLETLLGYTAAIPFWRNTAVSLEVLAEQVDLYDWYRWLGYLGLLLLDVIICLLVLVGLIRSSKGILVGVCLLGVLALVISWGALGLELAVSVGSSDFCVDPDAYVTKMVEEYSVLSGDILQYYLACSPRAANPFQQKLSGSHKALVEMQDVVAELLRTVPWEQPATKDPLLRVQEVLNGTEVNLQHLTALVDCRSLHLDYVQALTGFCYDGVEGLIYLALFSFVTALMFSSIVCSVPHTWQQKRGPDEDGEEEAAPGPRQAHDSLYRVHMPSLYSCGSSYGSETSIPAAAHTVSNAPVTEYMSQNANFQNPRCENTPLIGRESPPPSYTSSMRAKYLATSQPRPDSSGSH

SIGLEC14 = target: T5, SIGLEC14 (human, UniProt Q08ET2)
T5 sequence (looked up): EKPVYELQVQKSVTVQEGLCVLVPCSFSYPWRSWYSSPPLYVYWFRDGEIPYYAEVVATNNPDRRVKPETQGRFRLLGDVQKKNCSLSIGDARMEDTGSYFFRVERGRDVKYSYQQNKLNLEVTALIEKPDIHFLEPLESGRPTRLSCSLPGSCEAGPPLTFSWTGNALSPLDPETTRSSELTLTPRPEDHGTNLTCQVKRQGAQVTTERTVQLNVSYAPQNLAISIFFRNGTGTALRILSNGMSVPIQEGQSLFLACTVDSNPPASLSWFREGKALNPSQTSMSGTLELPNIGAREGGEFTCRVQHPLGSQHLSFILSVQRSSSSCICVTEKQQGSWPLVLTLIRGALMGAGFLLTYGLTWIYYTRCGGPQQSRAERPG

PRCD = target: T6, PRCD (human, UniProt Q00LT1)
T6 sequence (looked up): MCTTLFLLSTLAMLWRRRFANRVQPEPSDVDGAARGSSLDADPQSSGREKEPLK

CXCL12 = CXCL12 (human, UniProt P48061)
CXCL12, sequence (P48061 22-89 limits assumed): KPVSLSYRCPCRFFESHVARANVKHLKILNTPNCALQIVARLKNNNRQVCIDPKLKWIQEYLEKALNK

LGALS1 = LGALS1 (human, UniProt P09382)
LGALS1, sequence (P09382 2-135 limits assumed): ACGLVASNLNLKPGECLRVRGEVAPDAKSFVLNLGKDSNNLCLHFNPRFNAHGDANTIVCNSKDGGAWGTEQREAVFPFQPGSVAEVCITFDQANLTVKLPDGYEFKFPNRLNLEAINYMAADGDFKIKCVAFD

IGF1 = IGF1 (human, UniProt P05019)
FcγRIa (cell microarray) = FcγRIa (cell microarray) (human, UniProt P12314 16-374)
FcγRIa (cell microarray), sequence (P12314 16-374): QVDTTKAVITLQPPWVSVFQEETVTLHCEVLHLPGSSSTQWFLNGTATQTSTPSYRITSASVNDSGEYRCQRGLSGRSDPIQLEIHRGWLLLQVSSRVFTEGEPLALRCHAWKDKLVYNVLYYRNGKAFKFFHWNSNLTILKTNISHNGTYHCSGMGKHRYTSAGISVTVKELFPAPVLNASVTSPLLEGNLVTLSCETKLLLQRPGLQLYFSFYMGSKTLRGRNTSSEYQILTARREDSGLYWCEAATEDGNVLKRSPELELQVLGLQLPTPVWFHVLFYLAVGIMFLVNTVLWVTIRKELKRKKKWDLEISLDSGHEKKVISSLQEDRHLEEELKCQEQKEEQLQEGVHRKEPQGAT

Measured: binding result

B1: Fc LALA-PG only construct with the ACE2 domain omitted (other)
chain: EPKSCDKTHTCPPCPAPEAAGGPSVFLFPPKPKDTLMISRTPEVTCVVVDVSHEDPEVKFNWYVDGVEVHNAKTKPREEQYNSTYRVVSVLTVLHQDWLNGKEYKCKVSNKALGAPIEKTISKAKGQPREPQVYTLPPSREEMTKNQVSLTCLVKGFYPSDIAVEWESNGQPENNYKTTPPVLDSDGSFFLYSKLTVDKSRWQQGNVFSCSVMHEALHNHYTQKSLSLSPGK
notes: also called control Fc (LALA-PG)
no binding: all assays above
